According to patent US20100322937A1:

Columns and labels:
[1] = target: EGFR 273-621 C287R, yeast surface displayed (UniProt P00533); experiment: from titration on yeast surface displayed fragments
[2] = target: EGFR 273-621 E293K, yeast surface displayed (UniProt P00533); experiment: as above
[3] = target: wtEGFR: full-length human EGFR with FLAG tag after the leader, on BaF/3 cells (human) (UniProt P00533); experiment: FACS, wtEGFR-BaF/3 cells after mock preincubation, antibody at 10 µg/ml
[4] = target: wtEGFR: full-length human EGFR with FLAG tag after the leader, on BaF/3 cells (human) (UniProt P00533); experiment: FACS median fluorescence, wtEGFR-BaF/3 cells preincubated with EGF (10 ng/ml, 4 C, 15 min)
[5] = target: wtEGFR: full-length human EGFR with FLAG tag after the leader, on BaF/3 cells (human) (UniProt P00533); experiment: FACS median fluorescence, wtEGFR-BaF/3 cells preincubated with mAb[…] (10 µg/ml, 37 C, 1 hr)
[6] = target: EGFR 273-621 C287R, yeast surface displayed (UniProt P00533); experiment: titration on yeast surface displayed fragment, flow cytometry, global fit of three data sets
[7] = target: wild-type EGFR 273-621 (C283A template), yeast surface displayed, C-terminal c-myc tag (UniProt P00533); experiment: as above

Sequence of monoclonal antibody 806 (mAb 806), murine IgG2b anti-EGFR (VH): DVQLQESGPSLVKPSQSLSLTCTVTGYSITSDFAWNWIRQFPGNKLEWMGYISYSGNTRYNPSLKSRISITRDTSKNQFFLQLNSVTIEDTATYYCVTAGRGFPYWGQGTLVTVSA
Sequence of monoclonal antibody 806 (mAb 806), murine IgG2b anti-EGFR (VL): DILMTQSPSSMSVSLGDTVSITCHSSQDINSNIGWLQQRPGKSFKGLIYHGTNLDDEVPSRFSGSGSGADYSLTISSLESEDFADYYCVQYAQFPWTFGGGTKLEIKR

Substance	ΔΔG compared to wild-type [1]	ΔΔG compared to wild-type [2]	median fluorescence [3]	change (%) in antibody reactivity after preincubation [4]	change (%) in antibody reactivity after preincubation [5]	Kd [6]	Kd [7]
monoclonal antibody 806 (mAb 806), murine IgG2b anti-EGFR	2.4 kcal/mol	5.7 kcal/mol	7	-48%	163%	127 nM	2.13 nM
monoclonal antibody 528 (mAb 528), IgG2a anti-EGFR	–	–	112	-23%	-3%	–	–
